± gives the uncertainty stated by the source.
Test: self-splicing fitness, log relative to wild type (ln ratio); higher = more splicing; Tetrahymena group I intron in knt gene, E. coli kanamycin selection, DiMSum; sequences stand for … in CUCUCU…GGAGGGAAAAGUUAUCAGGCAUGCACCUGGUAGCUAGUCUUUAAACCAAUAGAUUGCAUCGGUUUAAAAGGCAAGACCGUCAAAUUGCGGGAAAGGGGUCAACAGCCGUUCAGUACCAAGUCUCAGGGGAAACUUUGAGAUGGCCUUGCAAAGGGUAUGGUAAUAAGCUGACGGACAUGGUCCUAACCACGCAGCCAAGUCCUAAGUCAACAGAUCUUCUGUUGAUAUGGAUGCAGUUCACAGACUAAAUGUCGGUCGGGGAAGAUGUAUUCUUCUCAUAAGAUAUAGUCGGACCUCUCCUUAAUGGGAGCUAGCGGAUGAAGUGAUGCAACACUGGAGCCGCUGGGAACUAAUUUGUAUGCGAAAGUAUAUUGAUUAGUUUUGGAGUACUCGUGGUCG
Outline: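 Six replicate transformations of E. coli BL21(DE3) with a pET-22b(+) library were grown overnight at 37°C or 30°C. The library randomised all eight P1ex-region intron nucleotides, the intron lying in the knt kanamycin-resistance gene, and plates were LB agar with or without 25 μg/mL kanamycin plus 100 μg/mL carbenicillin, 50 μM IPTG and 0.2% rhamnose. Pooled colonies were amplicon-sequenced on an Illumina HiSeq 2500, and fitness is the DiMSum error-weighted combination of wild-type-normalised replicate fold changes, kanamycin versus none.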

Row | Sequence | self-splicing fitness (ln) (30 °C) | self-splicing fitness (ln) (37 °C)
1 | GUCUAGCAAUAUUACGUGAA | -0.302 ± 0.1 | 0.449 ± 0.097
2 | UUUCAGCAAUAUUACGCGCG | -0.107 ± 0.18 | -1.01 ± 0.22
3 | ACUUAGCAAUAUUACGACAG | -0.902 ± 0.08 | 0.0363 ± 0.1
4 | GGCGAGCAAUAUUACGUAAU | -1.4 ± 0.13 | -0.339 ± 0.14
5 | AUUCAGCAAUAUUACGGGUC | -4.41 ± 0.46 | -2.94 ± 0.24
6 | CUCCAGCAAUAUUACGUGUC | -3.56 ± 0.22 | -2.55 ± 0.23
7 | UAUAAGCAAUAUUACGAGUA | -0.776 ± 0.085 | -0.245 ± 0.081
8 | GCCUAGCAAUAUUACGACCG | -1.8 ± 0.34 | -0.867 ± 0.39
9 | AGAAAGCAAUAUUACGACUG | -1.04 ± 0.093 | -0.249 ± 0.12
10 | CAGGAGCAAUAUUACGUGGC | – | -1.5 ± 0.38
11 | ACGUAGCAAUAUUACGGGAU | -2.67 ± 0.16 | -1.97 ± 0.16
12 | GAGAAGCAAUAUUACGGUGG | -2.14 ± 0.14 | -2.93 ± 0.25
13 | GCUCAGCAAUAUUACGGAUG | -1.76 ± 0.094 | -1.12 ± 0.12
14 | UAGUAGCAAUAUUACGUUGA | -2.34 ± 0.13 | -1.54 ± 0.12
15 | UGAGAGCAAUAUUACGGGUU | -2.45 ± 0.24 | -2.85 ± 0.31
16 | GAUUAGCAAUAUUACGGUGU | -2.74 ± 0.09 | -0.798 ± 0.083
17 | AUCGAGCAAUAUUACGAAGG | -2.56 ± 0.23 | -2.28 ± 0.31
18 | GACAAGCAAUAUUACGACAU | -0.624 ± 0.011 | -0.191 ± 0.032
19 | AGAUAGCAAUAUUACGAUGG | -2.2 ± 0.14 | -3.07 ± 0.22
20 | GCGAAGCAAUAUUACGCGCA | -1.75 ± 0.36 | -1.11 ± 0.22

Row | Sequence | self-splicing fitness (ln) (30 °C) | self-splicing fitness (ln) (37 °C)
21 | ACAUAGCAAUAUUACGUGGC | -3.8 ± 0.23 | -3.09 ± 0.27
22 | UUCCAGCAAUAUUACGGGGU | -3.02 ± 0.12 | -2.81 ± 0.17
23 | GCGCAGCAAUAUUACGUUGU | -3.03 ± 0.13 | -1.24 ± 0.12
24 | CUGAAGCAAUAUUACGGGUC | -3.92 ± 0.4 | –
25 | AUCGAGCAAUAUUACGUAUG | -3.84 ± 0.19 | -4.4 ± 0.46
26 | GCUUAGCAAUAUUACGCCGA | -2.42 ± 0.23 | -1.87 ± 0.27
27 | CGAAAGCAAUAUUACGGAGU | -3.55 ± 0.19 | -2.42 ± 0.17
28 | CAAUAGCAAUAUUACGAAUU | -3.51 ± 0.26 | -2.23 ± 0.18
29 | AACUAGCAAUAUUACGGAGC | -1.86 ± 0.15 | -0.604 ± 0.15
30 | CGCUAGCAAUAUUACGCCGC | -2.55 ± 0.18 | –
31 | UCAGAGCAAUAUUACGCCAG | -2.62 ± 0.3 | -0.0811 ± 0.28
32 | UAGAAGCAAUAUUACGGGGA | -2.39 ± 0.14 | -0.988 ± 0.12
33 | CAUUAGCAAUAUUACGGUCG | -0.452 ± 0.14 | 0.576 ± 0.14
34 | AAAAAGCAAUAUUACGACCU | 0.273 ± 0.072 | 0.617 ± 0.089
35 | CAUCAGCAAUAUUACGUGGU | -3.2 ± 0.096 | -2.07 ± 0.12
36 | GCACAGCAAUAUUACGCGCG | -1.05 ± 0.066 | -0.445 ± 0.075
37 | AUGGAGCAAUAUUACGCUUU | – | -1.37 ± 0.46
38 | AGGUAGCAAUAUUACGCCAG | -1.22 ± 0.02 | -0.873 ± 0.037
39 | UUAUAGCAAUAUUACGUGAA | -1.91 ± 0.18 | -0.849 ± 0.17

Reference: the supplement of paper PMC7877785
